A short description of this data set: yeast display, Sf9 membrane polyspecificity reagent, FACS + sequencing; frameworks hold sequencing errors. Put shortly: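 Polyreactivity labels are assigned by the sorting gate from which each nanobody was recovered. The gates were low and high (top ~1%), set on anti-HA fluorescence for expression and streptavidin fluorescence for reagent binding. Before sorting, galactose-induced (36–48 hours) yeast display cells were stained for 1 hour at 4 °C with 10% biotinylated, detergent-solubilized Sf9 membrane reagent.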
Take “QVQLVESGGGLVQAGGSLRLSCAASGRIFYYYGMGWYRQAPGKERELVAAISNGGRTYYADSVKGRFTISRDNAKNTVYLQMNSLKPEDTAVYYCAALTRGRGGYDYWGLGTQVTVSS”: the “polyreactivity (PSR sort gate)” value is given as “high polyreactivity”. The value for “QVQLVESGGGLVQAGGSLRLSCAASGRIFYYYVMGWYRQAPGKEREFVAAISWSASNTYYADSVKGRFTISRDNAKNTVYLQMNSLKPEDTAVYYCAADTLWLDWQGYDYWGQGTQVTVSS” was “low polyreactivity”. Next, “QVQLVESGGGLVQAGGSLRLSCAASGRIGKYAMGWYRQAPGKERELVAAITSGGSTTYADSVKGRITISRDNAKNTVYLQMNSLNPEDTAVYYCKALRRARYTRKGYEYWGQGTQVTVSS”: “high polyreactivity”; “QVQLVESGGGLVQAGGSLRLSCAASGRIGTNAMGCYRQAPGKERELVAAISKRGGSTHYADSVKGRFTISRDNAKNTVYLQMNSMKPEDTAVYYCAASRAVGYDYWGQGTEVTVSS”: “high polyreactivity”; “QVQLVESGGGLVQAGGSLRLSCAASGRIGTYAMGWYRQAPGKERELVAGIRSGGSTYYADSVKGRFTISRDNAKNTVYLQLNSLKPEDTAVYYCAADRGYRGATGKYDSWGQGTQVTVSS”: “high polyreactivity”. On to “QVQLVESGGGLVQAGGSLRLSCAASGRIIARYTMGWYRQAPGKERELVAAITRGSSTYYADSVKGRFTISRDNALNTVFLHMNSQKPEDTAVNYCAKVYVVKSRYVYWGKGTQVTVSS”, for which the “polyreactivity (PSR sort gate)” value is “low polyreactivity”. Next, “QVQLVESGGGLVQAGGSLRLSCAASGRIIDANVMGWYRQAPGKERELVAAISASAGSTSYADSVKGRFTISRDNAKNTVYLQMNSLKPEDTAVYYCAADPYQLWHYYYFGMDYWGQGTQVTVSS”: “low polyreactivity”; “QVQLVESGGGLVQAGGSLRLSCAASGRIIDTYAMGWYRQAPGKERELFASISRSDTSTSYADSVKGRFTISRDNAKNTVYLQMNCLKPEDTAVYYCNKDGVTVTNSKRYDYLGQGTQVTVSS”: “low polyreactivity”. “QVQLVESGGGLVQAGGSLRLSCAASGRIIFIYAMGWYRQPPGKERELVAGINRTGGSTYYADSVKGRFTISRDNAKNTVYLQMNSLKPEDTAVYYCAAVSYYASDYRYDYWGQGTQVTVSS”: the “polyreactivity (PSR sort gate)” value is reported as “low polyreactivity”. Consider “QVQLVESGGGLVQAGGSLRLSCAASGRIIGAYAMGWYRQAPGKERELVAAITSRGGNTYYADSVKGRITISRDNAKNTVYFQMNSLKPEDTAVYYCAAGVRAYNWCEYDYWGQGTQVTVSS”, for which the “polyreactivity (PSR sort gate)” value is “low polyreactivity”. As to “QVQLVESGGGLVQAGGSLRLSCAASGRIIGRYVRGWYRQAPGKERELVAAITRGGSTNYADSVKGRYTISRDNAKNTVYLQMNSLKPEDTAVYYCARAYSTVNRYSMYYWGQGTQVTVSS”, the “polyreactivity (PSR sort gate)” value was “high polyreactivity”.

In the case of “QVQLVESGGGLVQAGGSLRLSCAASGRIIGTNAMGWYRQAPGKEREMVAAITWRGGSTYYADSVKGRFTYSRDNAKNTVYLQKNSLKPEDTAVYYCNKDPPRFSGLDENDWGQGTQVTVSS”, the “polyreactivity (PSR sort gate)” value is listed as “low polyreactivity”.

As for “QVQLVESGGGLVQAGGSLRLSCAASGRIIGYNAMGWYRQAPGKERELVAAIDYTGGSTYYADSVKGRFTISLDNAKNTVYLQMNSLKPEDTAVYYCAKDRTTPWEEDDYWGQGTQVTVSS”, the “polyreactivity (PSR sort gate)” value is recorded as “low polyreactivity”.

For “QVQLVESGGGLVQAGGSLRLSCAASGRIIIEYAMGWYRQAPGKERELVASITSSGGRTTFADSVKGRFTISRDNAKNTVYLQMNSLKPEDTSVYYCAAKYYWYYSYSGIPLFDYWGQGTQVTVSS”, the “polyreactivity (PSR sort gate)” value is given as “low polyreactivity”. The value for “QVQLVESGGGLVQAGGSLRLSCAASGRIIKTNAMGWYRQAPGKERELVAAISSSGGRTYYADSVKGRFTISRDNAKNTVYLQMNSLKPEDTAVYYCAAPSLVSFGYWGQGTQVTVSS” was “high polyreactivity”; that for “QVQLVESGGGLVQAGGSLRLSCAASGRIIKVYAMAWYRQAPGKDRELVAAISSRGGSTYYADSVKGRFTISRDNAKNTVYLQMNSVKPEDTAVYYCAALVTWLHPKGDYWGQGTQVTVSS” was “low polyreactivity”. Next, “QVQLVESGGGLVQAGGSLRLSCAASGRIILVYAMGWYRQAPGKEREVVAAISSGGSTYYADSVKGRFTISRDTAKNPVYLQMNSLKPDDTAVYYSAARTAVGPIRSYWYDYWGQGTQVTVSS”: “low polyreactivity”. Turning to “QVQLVESGGGLVQAGGSLRLSCAASGRIIPLNAMGWYRPAPGKERELVAAISYDGCTYYADSVKGRFTISRDNAKNTVYLQMNSVKPEDTAVYYCAARGSYRGPYNVEYDSWGQGTQVTVSS”, the “polyreactivity (PSR sort gate)” value is “low polyreactivity”. On to “QVQLVESGGGLVQAGGSLRLSCAASGRIIPRNAMGWYRQEPGKERELVAGISRGGSTYYADSVKGRFTISRDNAKNSVYLQMNSLKPEDTAVYYCAAAYQKSPITPNMDYWGQGTQVTVSS”, for which the “polyreactivity (PSR sort gate)” value is given as “low polyreactivity”. For “QVQLVESGGGLVQAGGSLRLSCAASGRIIRSYAMVWYRQAPGKERELVAAISYSGGSTYYADSVKGRFTISRDNAKNTVYLQMNSLKPEDTAVYYCAALPGERKYIYYGYDYWGQGTQVTVSS”, the “polyreactivity (PSR sort gate)” value is recorded as “high polyreactivity”.

Consider “QVQLVESGGGLVQAGGSLRLSCAASGRIISNYAMGWYRQAPGNERELVAAITVIGGRTYYADSVKGRFTISRDNAKNTVYLQMNSLKPEDTAVYYCNAEEYWYDGFYWLSYDYWGQGTQVTVSS”, for which the “polyreactivity (PSR sort gate)” value is given as “high polyreactivity”. The value for “QVQLVESGGGLVQAGGSLRLSCAASGRIISYNDMGWYRPAPGKERELVAAISWGGGSTYYADSVKGRFTISRDNAKNTVYLQMNSLKPEDTAVYYCSKGWYRIKRNDYWGQGTQVTVSS” was “low polyreactivity”; that for “QVQLVESGGGLVQAGGSLRLSCAASGRIITRNVMGWYRQAPGKERELVAAISTSGGSTFYADSVKGRFTISRDNAKKTVYLQMNSLKPEDTAVYYCAKRRYGKLEFWGQGTQVTVSS” was “high polyreactivity”; that for “QVQLVESGGGLVQAGGSLRLSCAASGRIITYYAMGWYRQAPGKERELVAAISRTGGTTYYADSVKGRFTISRDNAKNTVYLQMNSLKPEDTAVYYWNAVKAPYLRYDYWGQGTQVTVSS” was “high polyreactivity”. In the case of “QVQLVESGGGLVQAGGSLRLSCAASGRIITYYAMGWYRQAPGKERELVAAITASGSRTYYADSVKGRFTISRDTAKNTVYLQMNSLKPEDTAVYYCAALSRLSPLSGSYYWGQGTQVTVSS”, the “polyreactivity (PSR sort gate)” value was “high polyreactivity”. As to “QVQLVESGGGLVQAGGSLRLSCAASGRIIWANTMGCYRQAPGKEREFVAAISWSTDSTYYADSVKGRFTISRDNAKNTVYFQMNSLKPEDTAVYYCNARAGYPWGVFYVTYVYWGQGTQVTVSS”, the “polyreactivity (PSR sort gate)” value is given as “low polyreactivity”. “QVQLVESGGGLVQAGGSLRLSCAASGRIIWSNTMGWYRQAPGKESELVAASSGRGGSTYYADSVKGRFTISRDNAKNTVYLQMNSLKPEDTAVYYCAAKPTRSRKIYEYWGQGTQVTVSS”: the “polyreactivity (PSR sort gate)” value is “low polyreactivity”. “QVQLVESGGGLVQAGGSLRLSCAASGRIIYAYAMGWYRQTPGKERELVAAISTRGGTTYYADSVKGRFTISRDNAKNTVYLQMNSLKPEDTAVYYCNALRVSRRVGYDSWGKGTQVTVSS”: the “polyreactivity (PSR sort gate)” value is reported as “high polyreactivity”.

On to “QVQLVESGGGLVQAGGSLRLSCAASGRIIYKNAMGWYRQAPGKETELVAAINSSGGSTYYGDSVKGRFTISRDNAKNTVYLQMNCLKPEDSAVYYCAAYDYGRFGKLNYWGQGSQVTVSS”, for which the “polyreactivity (PSR sort gate)” value is on record as “low polyreactivity”. For “QVQLVESGGGLVQAGGSLRLSCAASGRIIYRNAMGWSRQSPGKEREMVATITKNGGATYYADSVKGRFTISRDNAKNTVYLQMNTLKPEDTAVYYCATGSRGYKASPQWRDYWGQGTQVTVSS”, the “polyreactivity (PSR sort gate)” value is given as “high polyreactivity”.

Consider “QVQLVESGGGLVQAGGSLRLSCAASGRIIYTYALGWYRQAPGKERELVAAISWSGGSTYYADSVKGRFTISRDNAKNTVYLQMNSLKREDTAVYYCNAAYYGYENLSKRGYWGQGTQVTVSS”, for which the “polyreactivity (PSR sort gate)” value is given as “high polyreactivity”. Take “QVQLVESGGGLVQAGGSLRLSCAASGRIIYWYAMGWYRQAPGKERELVAAIDWSAASTYYADSVKGRFTISRDNAKNTVYLQMNSLKPEDTAVYYCNRRGRGGESYRTTPGALGYWGQGTQVTVSS”: the “polyreactivity (PSR sort gate)” value is reported as “low polyreactivity”. For “QVQLVESGGGLVQAGGSLRLSCAASGRIIYYAMGRYRQAPGKERELVAAITRNGGTYADSVKGRFTISRDNSKNTVYLPMISLKAEDSAVYYCNADPDFGDDYWGQGTQVTVSS”, the “polyreactivity (PSR sort gate)” value was “low polyreactivity”.

In the case of “QVQLVESGGGLVQAGGSLRLSCAASGRILAANAMGWYRQAPGKERELVAAISWSGGRTYYADSVKGRFTISRDNAKNTVYLQMNSLKPEDTAVYYCNKLALAGYDYWGQGTQVTVSS”, the “polyreactivity (PSR sort gate)” value is reported as “high polyreactivity”. Consider “QVQLVESGGGLVQAGGSLRLSCAASGRILADNAMGWYRQAPGKERELVAAISESGGSTYYADSVKGRFTISRDNAKNTVYLQMNSLKAEDTAVYYCAADTASIYYEYYYWGQGTQVTVSS”, for which the “polyreactivity (PSR sort gate)” value is reported as “low polyreactivity”. As for “QVQLVESGGGLVQAGGSLRLSCAASGRILDKYAMGWYRPAPGKERELVARIRFSGGDTYADSVKGRFTISRDNAKNTVYLQMNSLKPEDTAVYYCNKDRRNRWDAFDYWGQGTQVTVSS”, the “polyreactivity (PSR sort gate)” value is “low polyreactivity”. For the sequence “QVQLVESGGGLVQAGGSLRLSCAASGRILDYYAMGWYRQAPGKERELVAAIRRRGVITYADSVKGRFTISRDNAKNTVYLQMNSLKPEDTAVYYCAAGGYEYGYWGQGTQVTVSS”, the “polyreactivity (PSR sort gate)” value is reported as “low polyreactivity”. With “QVQLVESGGGLVQAGGSLRLSCAASGRILEGYAMGWYRQAPGKEELVAAITSDASTYYADSVKGRFTMSRDNAKNTVYLQINSLKPEDTAVYYCAADTYDNDYYYWGQGTLVTVSS”, the “polyreactivity (PSR sort gate)” value is listed as “high polyreactivity”. As to “QVQLVESGGGLVQAGGSLRLSCAASGRILGAYAMGWYRQAPGKERELVASISSGGRTYYADSVKGRFTISRDNAKNTVYLQMNSLKPEDTAVYYCAAYVYTSFLYYYWGQGTQVTVSS”, the “polyreactivity (PSR sort gate)” value is reported as “high polyreactivity”. Take “QVQLVESGGGLVQAGGSLRLSCAASGRILGFYAMGWYRQAPGKEMELVARINWSGTRTYYADSVKGRFTISRDNAKNTVYLQMNSLKPEDTAVYYCAAERYPYGVTYSKLDYWGQGTQVTVSS”: the “polyreactivity (PSR sort gate)” value is “high polyreactivity”.

For the sequence “QVQLVESGGGLVQAGGSLRLSCAASGRILGFYAMGWYRQAPGKERELDARINWSGTRTYYADSVKGRFTISRDNAKNTVYLQMNSLKPEDTAVYYCAAERYPYGVTYSKLDYWGQGTQVTVSS”, the “polyreactivity (PSR sort gate)” value is on record as “high polyreactivity”.
